Source: patent publication US11623951B2, “Antibodies to R-spondin 3” (National Health Research Institutes, priority 2017, dated 2023)

Columns and labels:
[1] = system: RSPO3-Wnt signaling (hRSPO3), MDA-MB436 TCF/LEF-Luc cells; assay: TCF/LEF-Luc WNT reporter assay in MDA-MB436 cells stimulated by Wnt3a plus human RSPO3; type: cell-based; details: Wnt3a plus human RSPO3
Description: FIG. 4 is a set of graphs showing RSPO3 Abs targeting the canonical Wnt signaling and in vitro testing for inhibition of β-catenin activity. (A) A1, A2, A4, A5, A6, and A9 clones; (B) B1, B3, B4, B8, and B9 clones; and (C) Dose-response effect of elevated A4 and A6 clones on RSPO-Wnt signaling. MDA-MB436 TCF/LEF-Luc cells were incubated with a combination of Wnt3a (20 ng/mL) and RSPO3 (50 ng/mL) in the presence of 20 μg/mL anti-RSPO3 antibodies clone A1, A2, A4, A5, A6, A9 or 131R002. As controls, cells were incubated with a combination of Wnt3a and RSPO3, Wnt3a only, RSPO3 only, or with no addition. The cells were incubated for 16 hours and the luciferase activity assay was performed using One-Glo Luciferase Assay System.
(§1) FIG. 6 is a set of graph showing that anti-RSPO3 Ab inhibits WNT reporter activity stimulated by combination of Wnt3a and RSPO3. […] The cells were incubated for 16 hours. The luciferase activity assay was performed using One-Glo Luciferase Assay System.
(§2) Wnt signaling leads to β-catenin/TCF dependent transcriptional responses. MDA-MB436-TCF/LEF-Luc cells, a gift from Dr. Kelvin Kun-Chih Tsai, were employed to monitor the activity of Wnt signal transduction pathways. See, e.g., Wang et al. (2013). Gastroenterology (145): 1110-1120. In brief, MDA-MB436-TCF/LEF-Luc cells were seeded in black flat bottom 96 well culture plates (Costar) in RSPO Medium supplemented with 10% FBS and incubated overnight at 37° C., 5% CO2. 24 hours after incubation, cells were treated with anti-RSPO3 ab, 20 ng/ml WNT3a (R&D system) and RSPO ligands (Peprotech Systems) where appropriate and further incubated for 16 hours. Luciferase activity was measured using Bright-Glo Luciferase Assay System (Promega).

[2] = system: RSPO3-Wnt signaling (mRSPO3), MDA-MB436 TCF/LEF-Luc cells; assay: TCF/LEF-Luc WNT reporter assay in MDA-MB436 cells stimulated by Wnt3a plus murine RSPO3; type: cell-based
Description: as §1, §2

[3] = target: T1, cyclic peptides derived from hRSPO3 (Homo sapiens, UniProt Q9BXY4); assay: Epitope mapping with synthetic cyclic peptides derived from hRSPO3; type: binding; details: hB1 2 μg/ml; cyclic peptides a.a. 40-47, 44-53, 56-75, 79-94
T1 construct: four cyclic peptides (a.a. 40-47, 44-53, 56-75 and 79-94) were designed; host or cells: synthetic peptides
T1 sequence (Q9BXY4 56-75): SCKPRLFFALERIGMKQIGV
Description: FIG. 9 is a set of schematics and graphs showing epitope studies of several α-RSPO3 antibodies. (A) Various truncated RSPO3 fragments were coated on ELISA plates, followed by the addition of biotinylated hB1, an α-RSPO3 antibody, to each well. Streptavidin-HRP was then added for detection of the bound biotinylated antibody. (B) The biotinylated cyclic peptides, at 1 μg/ml, and biotinylated recombinant human RSPO3, at 100 ng/ml, were applied to NeutrAvidin pre-coated plates. To examine the binding between different cyclic peptides and hB1, hB1 at 2 μg/ml was then added to each well of the plates. To detect bound anti-RSPO3 antibodies, Goat anti-human IgG-Fc-HPR (Chemicon) was then applied to the plates.
In order to attach different biotinylated peptides or proteins on the plates, the biotinylated cyclic peptides, at 1 μg/ml, and biotinylated recombinant human RSPO3, at 100 ng/ml, were applied to NeutrAvidin pre-coated plates (Thermo Scientific Pierce). Cyclic peptides were treated with 0.1M DTT first to generate reducing form of cyclic peptides. To examine the binding between hB1 and different cyclic peptides, hB1, at 2 μg/ml, was added to each well of the plates. After incubation and washing, goat anti-human IgG-Fc-HPR (Chemicon) was then applied to plates. […] The colorimetric reaction was then stopped by 2N HCL and the optical density at 450 nm of each well was determined immediately.

B1: hB1: humanized α-RSPO3 antibody derived from murine clone B1; VH SEQ ID NO: 14, VL SEQ ID NO: 16 (antibody, V domains shown)
VH: QIQLQESGPGLVKPSESLSLTCSVTGYSITSGYYWNWIRQFPGNGLEWMGYISYDGTNNYNPSLKDRISITRDTSKNQFFLKLNSVTAADTATYYCSVLLIQYFNIWGKGTTVTVSS
VL: DIQMTQSPSSLSASVGERVTITCRTSESVNNFLAWFHQKPGKSPKLLVYHAKTLADGVSSRFSGSGSGTQYSLKINSLQPEDFGNYYCQHFWSIPWTFGGGTKLEIKR
modifications: Heavy chain variable region; Light chain variable region
inhibition of WNT reporter activity stimulated by hRSPO3 [1]: able to inhibit the WNT reporter activity | inhibition of WNT reporter activity stimulated by mRSPO3 [2]: able to inhibit the WNT reporter activity | binding epitope by cyclic peptides [3]: residues 56-75
